Measured values as given in patent US5310662.

Experiments:
[1] = test system: G-gal-G (hGR with DNA-binding domain replaced by GAL4 residues 1-74) (Homo sapiens / Saccharomyces cerevisiae); experiment: cell_activity
[2] = test system: GAL4 (Saccharomyces cerevisiae); experiment: cell_activity; conditions: CAT reporter; lost on deletion of the GAL4 site
[3] = test system: hGR G421 421G (Homo sapiens); conditions: immunoprecipitation DNA binding; transcription <1
[4] = test system: hGR G423 423G (Homo sapiens); conditions: immunoprecipitation DNA binding; transcription <1
[5] = test system: hGR G424 424G (Homo sapiens); conditions: immunoprecipitation DNA binding; transcription <1
[6] = test system: hGR G426 D426G (Homo sapiens); conditions: immunoprecipitation DNA binding; transcription 75
[7] = test system: hGR G431 C431G (Homo sapiens); conditions: immunoprecipitation DNA binding; transcription 80
[8] = test system: hGR G432 432G (Homo sapiens); conditions: immunoprecipitation DNA binding; transcription 10
[9] = test system: hGR G433 433G (Homo sapiens); conditions: immunoprecipitation DNA binding; transcription 2
[10] = test system: hGR G437 437G (Homo sapiens); conditions: immunoprecipitation DNA binding; transcription 20
[11] = test system: hGR G438 438G (Homo sapiens); conditions: immunoprecipitation DNA binding; transcription <1
[12] = test system: hGR G441 441G (Homo sapiens); conditions: immunoprecipitation DNA binding; transcription <1
[13] = test system: hGR G442 K442G (Homo sapiens); conditions: immunoprecipitation DNA binding; transcription <1; specificity minimally affected
[14] = test system: hGR G444 444G (Homo sapiens); conditions: immunoprecipitation DNA binding; transcription <1
[15] = test system: hGR G445 445G (Homo sapiens); conditions: immunoprecipitation DNA binding; transcription <1
[16] = test system: hGR G446 446G (Homo sapiens); conditions: immunoprecipitation DNA binding; transcription 40; may be unstable in vitro
[17] = test system: hGR G447 447G (Homo sapiens); conditions: immunoprecipitation DNA binding; transcription <1
[18] = test system: hGR G450 450G (Homo sapiens); conditions: immunoprecipitation DNA binding; transcription 60
[19] = test system: hGR G453 453G (Homo sapiens); conditions: immunoprecipitation DNA binding; transcription 90
[20] = test system: hGR G455 455G (Homo sapiens); conditions: immunoprecipitation DNA binding; transcription 80; may be unstable in vitro
[21] = test system: hGR G457 457G (Homo sapiens); conditions: immunoprecipitation DNA binding; transcription <1
[22] = test system: hGR G460 460G (Homo sapiens); conditions: immunoprecipitation DNA binding; transcription 55
[23] = test system: hGR G462 462G (Homo sapiens); conditions: immunoprecipitation DNA binding; transcription 80
[24] = test system: hGR G463 463G (Homo sapiens); conditions: immunoprecipitation DNA binding; transcription <1
[25] = test system: hGR G465 465G (Homo sapiens); conditions: immunoprecipitation DNA binding; transcription 1
[26] = test system: hGR G467 467G (Homo sapiens); conditions: immunoprecipitation DNA binding; transcription 40; may be unstable in vitro
[27] = test system: hGR G470 470G (Homo sapiens); conditions: immunoprecipitation DNA binding; transcription 3
[28] = test system: hGR G471 471G (Homo sapiens); conditions: immunoprecipitation DNA binding; transcription 10
[29] = test system: hGR G473 473G (Homo sapiens); conditions: immunoprecipitation DNA binding; transcription <1
[30] = test system: hGR G474 474G (Homo sapiens); conditions: immunoprecipitation DNA binding; transcription 60
[31] = test system: hGR G476 476G (Homo sapiens); conditions: immunoprecipitation DNA binding; transcription <1
[32] = test system: hGR G477 477G (Homo sapiens); conditions: immunoprecipitation DNA binding; transcription <1
[33] = test system: hGR G479 479G (Homo sapiens); conditions: immunoprecipitation DNA binding; transcription 65
[34] = test system: hGR G480 480G (Homo sapiens); conditions: immunoprecipitation DNA binding; transcription 90
[35] = test system: hGR G481 481G (Homo sapiens); conditions: immunoprecipitation DNA binding; transcription <1
[36] = test system: hGR G486 486G (Homo sapiens); conditions: immunoprecipitation DNA binding; transcription 10; may be unstable in vitro
[37] = test system: hGR delta420-451 del420-451 (positions given are the non-deleted residues at the junction) (Homo sapiens); conditions: immunoprecipitation DNA binding; transcription <1
[38] = test system: hGR delta450-487 del450-487 (positions given are the non-deleted residues at the junction) (Homo sapiens); conditions: immunoprecipitation DNA binding; transcription <1
[39] = test system: hGR-SB (human glucocorticoid receptor, wild-type-equivalent parent) (Homo sapiens); conditions: immunoprecipitation DNA binding, reference; transcription 100

deltaMTV-GAL-CAT promoter with synthetic GAL4 site 17MX
activity ([1]; CAT reporter, hormone dependent): 500 fold | activity [2]: 20 fold

deltaMTV-CAT promoter (GREs deleted, no GAL4 site)
activity (% of deltaMTV-GAL-CAT) ([1]; possible cryptic GAL4 site): 5

GRE-containing DNA fragment
binding signal [3]: < 1 % of hGR-SB | binding signal [4]: < 1 % of hGR-SB | binding signal [5]: 1 % of hGR-SB | binding signal [6]: 75 % of hGR-SB | binding signal [7]: 10 % of hGR-SB | binding signal [8]: 30 % of hGR-SB | binding signal [9]: 1 % of hGR-SB | binding signal [10]: 8 % of hGR-SB | binding signal [11]: < 1 % of hGR-SB | binding signal [12]: < 1 % of hGR-SB | binding signal [13]: 60 % of hGR-SB | binding signal [14]: 1 % of hGR-SB | binding signal [15]: < 1 % of hGR-SB | binding signal [16]: 6 % of hGR-SB | binding signal [17]: 2 % of hGR-SB | binding signal [18]: 50 % of hGR-SB | binding signal [19]: 60 % of hGR-SB | binding signal [20]: 6 % of hGR-SB | binding signal [21]: 2 % of hGR-SB | binding signal [22]: 90 % of hGR-SB | binding signal [23]: 40 % of hGR-SB | binding signal [24]: 1 % of hGR-SB | binding signal [25]: 1 % of hGR-SB | binding signal [26]: 6 % of hGR-SB | binding signal [27]: 4 % of hGR-SB | binding signal [28]: 6 % of hGR-SB | binding signal [29]: < 1 % of hGR-SB | binding signal [30]: 95 % of hGR-SB | binding signal [31]: < 1 % of hGR-SB | binding signal [32]: 1 % of hGR-SB | binding signal [33]: 40 % of hGR-SB | binding signal [34]: 50 % of hGR-SB | binding signal [35]: 3 % of hGR-SB | binding signal [36]: 1 % of hGR-SB | binding signal [37]: 1 % of hGR-SB | binding signal [38]: 1 % of hGR-SB | binding signal [39]: 100%
